Reference: patent US20090280138A1

Tests used:
Details in all cases: remark: other sources report otherwise
[1] = biological target: MHC class I molecule A*0301; experiment: iTopia affinity assay (ED50), peptide titration on plate-bound MHC
[2] = biological target: MHC class I molecule B*0702; experiment: as above
[3] = biological target: MHC class I molecule A*0101; experiment: iTopia iScore
[4] = biological target: MHC class I molecule A*0201; experiment: iTopia iScore
[5] = biological target: MHC class I molecule A*0301; experiment: iTopia iScore
[6] = biological target: MHC class I molecule B*0702; experiment: iTopia iScore
[7] = biological target: MHC class I molecule HLA-B*0702 (iTopia plate-bound monomer); experiment: iTopia off-rate assay, 37 C; fit R^2 0.09
[8] = biological target: MHC class I molecule HLA-A*0201 (iTopia plate-bound monomer); experiment: iTopia off-rate assay, 37 C; fit R^2 0.35
[9] = biological target: MHC class I molecule HLA-A*0301 (iTopia plate-bound monomer); experiment: iTopia off-rate assay, 37 C; fit R^2 0.99
[10] = biological target: MHC class I allele A*0201 monomer (human); experiment: iTopia, multiparametric iScore
[11] = biological target: MHC class I allele B*0702 monomer (human); experiment: iTopia, multiparametric iScore
[12] = biological target: MHC class I allele A*0101; experiment: iTopia peptide binding assay
[13] = biological target: MHC class I allele A*0201; experiment: iTopia peptide binding assay
[14] = biological target: MHC class I allele A*0301; experiment: iTopia peptide binding assay
[15] = biological target: MHC class I allele B*0702; experiment: iTopia peptide binding assay

Binder: RLARLALVL (here or on the partner: biotin (bound via biotin to streptavidin-coated plates)) [5T4 9 mer peptide 9 (…)]
- EC50 [1]: 3000 nM
- EC50 [2]: 700 nM

Binder: RLARLALVL (here or on the partner: biotin (bound to streptavidin-coated plate)) [5T4 9-mer peptide 9 …]
- iScore [3]: 0
- iScore [4]: 1.21
- iScore [5]: 0.052
- iScore [6]: 0.515
- t½ half life [7]: 2 h
- t½ half life [8]: 15.9 h
- t½ half life [9]: 0.3 h

Binder: RLARLALVL (here or on the partner: biotinylated, bound to streptavidin-coated plate) [5T4 9-mer peptide 9]
- iScore [10]: 1.21
- iScore [11]: 0.515

Binder: RLARLALVL (here or on the partner: bound via biotin to streptavidin-coated plate) [5T4 9 mer peptide 9 …]
- % of positive control peptide binding [12]: 2%
- % of positive control peptide binding [13]: 65%
- % of positive control peptide binding [14]: 48%
- % of positive control peptide binding [15]: 84%
